The values below are quoted from earlier work in article PMC4431351.

pKd: −log10 of the molar value.

The data set concerns the target MUC1 tandem-repeat synthetic peptide (UniProt P15941). As to conditions: Probe assembled in 5 mM sodium phosphate pH 7.4, then PBS (10 mM sodium phosphate, 140 mM NaCl, 2.70 mM KCl, pH 7.6), room temperature; cell incubation details ….
Chain of UniProt P15941 (P15941 whole entry): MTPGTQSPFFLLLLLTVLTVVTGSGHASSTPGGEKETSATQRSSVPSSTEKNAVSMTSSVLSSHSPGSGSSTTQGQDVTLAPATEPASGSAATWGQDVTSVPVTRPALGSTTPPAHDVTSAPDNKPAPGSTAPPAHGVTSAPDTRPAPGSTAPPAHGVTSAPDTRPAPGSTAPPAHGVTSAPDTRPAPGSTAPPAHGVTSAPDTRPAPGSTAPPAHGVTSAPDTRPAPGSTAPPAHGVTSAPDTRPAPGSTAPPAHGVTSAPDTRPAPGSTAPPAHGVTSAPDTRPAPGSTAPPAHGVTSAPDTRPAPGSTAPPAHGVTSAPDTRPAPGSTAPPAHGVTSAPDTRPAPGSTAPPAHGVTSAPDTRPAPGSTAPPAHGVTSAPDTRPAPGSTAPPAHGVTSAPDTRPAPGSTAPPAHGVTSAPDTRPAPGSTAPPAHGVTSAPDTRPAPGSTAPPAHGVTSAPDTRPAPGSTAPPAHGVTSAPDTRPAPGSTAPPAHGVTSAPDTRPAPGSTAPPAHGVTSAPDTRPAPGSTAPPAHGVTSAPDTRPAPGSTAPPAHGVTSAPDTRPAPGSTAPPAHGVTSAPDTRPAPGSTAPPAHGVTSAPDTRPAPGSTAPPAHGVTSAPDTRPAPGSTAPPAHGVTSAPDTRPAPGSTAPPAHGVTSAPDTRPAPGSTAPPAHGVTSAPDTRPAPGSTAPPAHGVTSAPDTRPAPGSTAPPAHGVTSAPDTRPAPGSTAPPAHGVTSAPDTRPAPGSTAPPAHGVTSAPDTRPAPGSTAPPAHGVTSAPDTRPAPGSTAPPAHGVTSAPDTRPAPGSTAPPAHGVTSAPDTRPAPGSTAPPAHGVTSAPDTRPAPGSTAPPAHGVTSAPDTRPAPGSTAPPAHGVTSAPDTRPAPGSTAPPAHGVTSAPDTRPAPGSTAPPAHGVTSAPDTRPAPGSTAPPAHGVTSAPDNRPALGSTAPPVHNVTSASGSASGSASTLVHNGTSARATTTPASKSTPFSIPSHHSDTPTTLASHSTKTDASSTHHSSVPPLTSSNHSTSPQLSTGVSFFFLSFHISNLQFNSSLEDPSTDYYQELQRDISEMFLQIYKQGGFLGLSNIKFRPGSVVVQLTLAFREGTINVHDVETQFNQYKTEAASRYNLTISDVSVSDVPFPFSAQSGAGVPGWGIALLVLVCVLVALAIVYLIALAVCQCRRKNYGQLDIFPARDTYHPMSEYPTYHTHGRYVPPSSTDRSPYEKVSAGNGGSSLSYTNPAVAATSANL

For the sequence “GCAGTTGATCCTTTGGATACCCTGG [AptMUC1 (25-mer)]”, the pKd is 10.00.

By pKd is commonly meant −log10 of the Kd, conventionally taken in molar units.
